Test [1] deals with T1, DORN1-GST (DORN1 residues 344-616 in pGEX-4T-1) (Arabidopsis thaliana (Mouse-ear cress), UniProt Q9LSR8).
T1 chain: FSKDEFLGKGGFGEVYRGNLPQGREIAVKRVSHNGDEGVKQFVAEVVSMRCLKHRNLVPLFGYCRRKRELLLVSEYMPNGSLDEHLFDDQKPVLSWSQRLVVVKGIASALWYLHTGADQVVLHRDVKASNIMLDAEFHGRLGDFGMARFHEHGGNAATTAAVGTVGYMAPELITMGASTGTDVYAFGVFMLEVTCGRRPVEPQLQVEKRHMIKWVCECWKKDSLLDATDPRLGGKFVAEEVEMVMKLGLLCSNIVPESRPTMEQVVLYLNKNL
Nature of the test: GST pulldown with anti-His immunoblot. A general note: Immunoblotting shows a protein as a band on a membrane.

Test [2] addresses T2, RBOHF-His (RBOHF residues 1-387 in pET28A) (Arabidopsis, UniProt O48538 1-387).
T2 construct: RBOHF of Arabidopsis (AT1G64060), residues 1-387; Cloned into pET28A via EcoRI/XhoI; also called RBOHF with His tag; source: E. coli Rosetta (DE3)
T2 sequence (looked up): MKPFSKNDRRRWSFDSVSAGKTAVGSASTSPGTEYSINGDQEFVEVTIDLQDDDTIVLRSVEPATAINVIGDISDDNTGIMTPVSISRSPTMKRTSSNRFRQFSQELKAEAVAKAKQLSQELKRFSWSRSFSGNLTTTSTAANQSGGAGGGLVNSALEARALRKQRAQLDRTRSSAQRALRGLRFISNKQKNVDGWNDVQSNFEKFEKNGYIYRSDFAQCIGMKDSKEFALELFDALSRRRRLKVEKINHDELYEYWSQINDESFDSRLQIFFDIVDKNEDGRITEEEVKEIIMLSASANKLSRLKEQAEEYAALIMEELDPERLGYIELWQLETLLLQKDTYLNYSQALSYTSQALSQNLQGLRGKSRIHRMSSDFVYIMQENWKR
Nature of the test: pull-down; glutathione beads with 50 µg DORN1-GST or GST incubated with 50 µg RBOHF-His; 1% NP40, 150 mM NaCl, 50 mM Tris-HCl, 1 mM EDTA, pH 7.5; 4 °C, 2 h; immunoblot with anti-GST and anti-His. The conditions noted are these: both partners purified.

B1: RBOHF-His (RBOHF residues 1-387 in pET28A) (protein)
chain: MKPFSKNDRRRWSFDSVSAGKTAVGSASTSPGTEYSINGDQEFVEVTIDLQDDDTIVLRSVEPATAINVIGDISDDNTGIMTPVSISRSPTMKRTSSNRFRQFSQELKAEAVAKAKQLSQELKRFSWSRSFSGNLTTTSTAANQSGGAGGGLVNSALEARALRKQRAQLDRTRSSAQRALRGLRFISNKQKNVDGWNDVQSNFEKFEKNGYIYRSDFAQCIGMKDSKEFALELFDALSRRRRLKVEKINHDELYEYWSQINDESFDSRLQIFFDIVDKNEDGRITEEEVKEIIMLSASANKLSRLKEQAEEYAALIMEELDPERLGYIELWQLETLLLQKDTYLNYSQALSYTSQALSQNLQGLRGKSRIHRMSSDFVYIMQENWKR
As for B1, in test [1], the binding result is recorded as “binds”.

B2: DORN1-GST (DORN1 residues 344-616 in pGEX-4T-1) (domain or fragment, Arabidopsis, UniProt Q9LSR8 344-616, looked up)
chain: FSKDEFLGKGGFGEVYRGNLPQGREIAVKRVSHNGDEGVKQFVAEVVSMRCLKHRNLVPLFGYCRRKRELLLVSEYMPNGSLDEHLFDDQKPVLSWSQRLVVVKGIASALWYLHTGADQVVLHRDVKASNIMLDAEFHGRLGDFGMARFHEHGGNAATTAAVGTVGYMAPELITMGASTGTDVYAFGVFMLEVTCGRRPVEPQLQVEKRHMIKWVCECWKKDSLLDATDPRLGGKFVAEEVEMVMKLGLLCSNIVPESRPTMEQVVLYLNKNL
notes: DORN1 of Arabidopsis (AT5G60300), residues 344-616; Printed both as DORN1-GST and as GST–DORN1; cloned into pGEX-4T-1 via EcoRI/XhoI; also called DORN-GST; source: E. coli Rosetta (DE3), on glutathione beads
As to B2, the binding result in test [2] is recorded as “binds”.
